What all share (test): pulldown
Holding throughout (conditions): 20 nM protein, 1.5 uM RNA pool; 20 mM HEPES pH 7.8, 70 mM KCl, 10 mM NaCl, 10% glycerol, 2 mM DTT, 0.1 ug/uL BSA; 30 min, 4 C

For series [1], the target named is T1, LmjF.29.0680 D253N (Leishmania major) (UniProt E9ADS0).
T1 sequence: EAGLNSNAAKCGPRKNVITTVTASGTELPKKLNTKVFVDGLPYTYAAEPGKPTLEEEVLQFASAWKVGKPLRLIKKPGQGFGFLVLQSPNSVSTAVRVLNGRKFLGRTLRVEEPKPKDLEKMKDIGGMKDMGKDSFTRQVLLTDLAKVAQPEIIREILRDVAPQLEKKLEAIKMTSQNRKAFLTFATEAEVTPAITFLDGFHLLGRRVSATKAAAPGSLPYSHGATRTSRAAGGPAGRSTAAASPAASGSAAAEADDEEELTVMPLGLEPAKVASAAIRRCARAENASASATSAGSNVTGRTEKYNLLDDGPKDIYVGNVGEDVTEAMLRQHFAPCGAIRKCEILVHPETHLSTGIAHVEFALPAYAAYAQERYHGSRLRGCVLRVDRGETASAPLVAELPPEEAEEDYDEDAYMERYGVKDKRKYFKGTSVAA

Series [2] addresses T2, LmjF.34.4560 (Leishmania major) (UniProt Q4Q285).
T2 sequence: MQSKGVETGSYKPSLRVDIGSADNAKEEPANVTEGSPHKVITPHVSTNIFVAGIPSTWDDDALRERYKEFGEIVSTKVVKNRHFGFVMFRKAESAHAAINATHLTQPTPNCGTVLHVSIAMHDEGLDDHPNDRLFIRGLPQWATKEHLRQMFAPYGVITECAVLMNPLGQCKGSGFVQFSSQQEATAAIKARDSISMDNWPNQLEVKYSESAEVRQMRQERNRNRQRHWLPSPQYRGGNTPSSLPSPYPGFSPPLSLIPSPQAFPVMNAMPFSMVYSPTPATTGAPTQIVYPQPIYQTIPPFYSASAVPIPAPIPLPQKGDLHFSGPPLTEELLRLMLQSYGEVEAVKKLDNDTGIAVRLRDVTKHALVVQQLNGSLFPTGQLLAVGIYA

Series [3] addresses T3, LmjF.33.1450 (Leishmania major) (UniProt Q4Q442).
T3 sequence: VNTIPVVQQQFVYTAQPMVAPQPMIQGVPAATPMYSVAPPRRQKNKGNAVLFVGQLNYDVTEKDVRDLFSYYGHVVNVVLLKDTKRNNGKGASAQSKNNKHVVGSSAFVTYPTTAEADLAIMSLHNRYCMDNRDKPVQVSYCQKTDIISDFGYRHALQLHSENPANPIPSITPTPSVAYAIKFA

Series [4] addresses T4, Tb11.01.3940 (Trypanosoma brucei) (UniProt Q382W9).
T4 sequence: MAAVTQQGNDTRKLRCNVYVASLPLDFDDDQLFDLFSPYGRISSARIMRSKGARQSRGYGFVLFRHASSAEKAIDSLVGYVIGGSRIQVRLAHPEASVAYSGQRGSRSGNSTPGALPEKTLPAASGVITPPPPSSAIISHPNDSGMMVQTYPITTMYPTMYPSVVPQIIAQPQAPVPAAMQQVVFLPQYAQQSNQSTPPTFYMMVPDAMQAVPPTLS

Series [5] has as its target T5, ENSMODG00000011916 (Monodelphis domestica) (UniProt F7E028).
T5 sequence: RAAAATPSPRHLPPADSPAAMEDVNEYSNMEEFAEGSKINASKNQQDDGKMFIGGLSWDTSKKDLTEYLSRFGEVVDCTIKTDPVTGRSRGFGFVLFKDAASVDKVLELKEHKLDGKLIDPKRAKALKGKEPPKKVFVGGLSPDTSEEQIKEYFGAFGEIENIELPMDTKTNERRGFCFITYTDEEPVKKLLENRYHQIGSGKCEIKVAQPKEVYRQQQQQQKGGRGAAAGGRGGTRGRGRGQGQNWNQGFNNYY

In series [6] the target is T6, LmjF.29.1360 (Leishmania major) (UniProt E9ADZ5).
T6 sequence: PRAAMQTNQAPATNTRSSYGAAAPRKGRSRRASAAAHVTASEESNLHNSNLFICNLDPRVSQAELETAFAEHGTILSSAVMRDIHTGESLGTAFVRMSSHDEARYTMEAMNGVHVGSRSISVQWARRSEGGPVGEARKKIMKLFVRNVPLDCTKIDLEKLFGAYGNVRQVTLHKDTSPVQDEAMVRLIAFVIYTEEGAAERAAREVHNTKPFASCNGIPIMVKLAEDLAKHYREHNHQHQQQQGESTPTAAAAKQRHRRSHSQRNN

Series [7] concerns the target T7, LmjF.29.1350 (Leishmania major) (UniProt E9ADZ4).
T7 sequence: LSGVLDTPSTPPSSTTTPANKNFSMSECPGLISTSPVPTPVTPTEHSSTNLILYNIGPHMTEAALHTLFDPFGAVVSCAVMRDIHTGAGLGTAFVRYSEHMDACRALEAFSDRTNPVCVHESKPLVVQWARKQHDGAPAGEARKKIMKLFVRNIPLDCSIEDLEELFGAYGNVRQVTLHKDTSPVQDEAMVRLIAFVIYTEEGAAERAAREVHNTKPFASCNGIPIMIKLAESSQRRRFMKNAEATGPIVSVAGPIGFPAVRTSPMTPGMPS

Series [8] deals with estExt_fgenesh1_pg.C_Chr_03.00010087 (Ostreococcus tauri) (UniProt A0A096P7J9).
For series [9], the target named is T8, LmjF.25.0500 (Leishmania major) (UniProt Q4QA45).
T8 sequence: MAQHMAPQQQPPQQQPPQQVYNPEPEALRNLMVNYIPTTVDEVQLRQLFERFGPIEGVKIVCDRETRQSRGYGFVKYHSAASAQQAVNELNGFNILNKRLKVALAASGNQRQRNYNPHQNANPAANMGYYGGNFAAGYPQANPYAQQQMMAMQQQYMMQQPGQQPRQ

Sequence of estExt_fgenesh1_pg.C_Chr_03.00010087 (Ostreococcus tauri) (A0A096P7J9 entry or part of it): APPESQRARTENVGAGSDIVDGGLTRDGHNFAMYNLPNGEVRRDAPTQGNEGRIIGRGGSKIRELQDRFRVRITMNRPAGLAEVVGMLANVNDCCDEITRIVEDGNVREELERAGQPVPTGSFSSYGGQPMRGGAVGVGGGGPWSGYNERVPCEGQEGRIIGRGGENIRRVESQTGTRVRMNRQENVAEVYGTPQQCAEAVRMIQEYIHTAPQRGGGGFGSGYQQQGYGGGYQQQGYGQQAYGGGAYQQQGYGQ

For GAAGGA [RNAcompete motif RNCMPT00720], the binding signal (z-score (mean of top ten 7-mers)) in [1] is 7.49.
Turning to ACAACU [RNAcompete motif RNCMPT00691], the binding signal (z-score (mean of top ten 7-mers)) in series [2] was 18.4.
The sequence UUGCAGU [RNAcompete motif RNCMPT00717] gave a binding signal (z-score (mean of top ten 7-mers)) in [3] of 21.8.
In [4], CUUAACC [RNAcompete motif RNCMPT00695] had a binding signal (z-score (mean of top ten 7-mers)) of 14.8.
In the case of AGAUAAA [RNAcompete motif RNCMPT00707], the binding signal (z-score (mean of top ten 7-mers)) in series [5] was found to be 8.36.
In series [6], UAUAGU [RNAcompete motif RNCMPT00714] came in with a binding signal (z-score (mean of top ten 7-mers)) of 20.4.
CAUAGU [RNAcompete motif RNCMPT00713] displayed a binding signal (z-score (mean of top ten 7-mers)) in series [7] of 24.5.
As for ACGCGA [RNAcompete motif RNCMPT00694], the binding signal (z-score (mean of top ten 7-mers)) in series [8] came to 10.9.
Take UAGUUU [RNAcompete motif RNCMPT00689]: the binding signal (z-score (mean of top ten 7-mers)) in series [9] worked out at 11.6.

The values are drawn from article PMC12990809.
